According to article PMC4641775 (2016):
Where two headings read alike, the source gives them in different places.

Legend:
PKR (Homo sapiens) [1] = biological target: PKR (Homo sapiens) (UniProt P19525); conditions: cited from earlier work
PKR (Homo sapiens) [2] = biological target: PKR (Homo sapiens) (UniProt P19525); test: sedimentation equilibrium; conditions: cited from earlier work
[3] = biological target: PKR kinase kinase domain (Homo sapiens) (UniProt P19525); conditions: cited from earlier work
PKR = biological target: T1, PKR (Homo sapiens, UniProt P19525); test: sedimentation equilibrium
T1 chain: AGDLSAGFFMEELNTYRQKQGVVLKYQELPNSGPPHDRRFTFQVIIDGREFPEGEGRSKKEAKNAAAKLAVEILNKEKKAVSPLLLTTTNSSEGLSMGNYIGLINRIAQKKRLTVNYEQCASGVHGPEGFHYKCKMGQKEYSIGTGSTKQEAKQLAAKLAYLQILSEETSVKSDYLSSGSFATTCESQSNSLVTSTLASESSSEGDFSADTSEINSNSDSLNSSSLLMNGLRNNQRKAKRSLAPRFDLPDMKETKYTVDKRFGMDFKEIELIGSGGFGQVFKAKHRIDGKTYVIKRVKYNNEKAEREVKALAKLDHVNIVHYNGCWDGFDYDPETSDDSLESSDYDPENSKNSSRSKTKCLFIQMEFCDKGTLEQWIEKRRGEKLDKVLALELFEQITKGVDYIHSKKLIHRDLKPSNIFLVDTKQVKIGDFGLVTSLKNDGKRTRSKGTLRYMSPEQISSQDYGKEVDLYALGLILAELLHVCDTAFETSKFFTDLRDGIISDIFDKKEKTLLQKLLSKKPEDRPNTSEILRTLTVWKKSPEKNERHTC

PKR (from UniProt P19525)
Kd (PKR (Homo sapiens) [1]): 500 µM
Kd (PKR (Homo sapiens) [2]): 450 µM

PKR second dsRBD dsRBD2 (from UniProt P19525)
Kd [3]: 250 µM

B1: PKR (protein)
chain: AGDLSAGFFMEELNTYRQKQGVVLKYQELPNSGPPHDRRFTFQVIIDGREFPEGEGRSKKEAKNAAAKLAVEILNKEKKAVSPLLLTTTNSSEGLSMGNYIGLINRIAQKKRLTVNYEQCASGVHGPEGFHYKCKMGQKEYSIGTGSTKQEAKQLAAKLAYLQILSEETSVKSDYLSSGSFATTCESQSNSLVTSTLASESSSEGDFSADTSEINSNSDSLNSSSLLMNGLRNNQRKAKRSLAPRFDLPDMKETKYTVDKRFGMDFKEIELIGSGGFGQVFKAKHRIDGKTYVIKRVKYNNEKAEREVKALAKLDHVNIVHYNGCWDGFDYDPETSDDSLESSDYDPENSKNSSRSKTKCLFIQMEFCDKGTLEQWIEKRRGEKLDKVLALELFEQITKGVDYIHSKKLIHRDLKPSNIFLVDTKQVKIGDFGLVTSLKNDGKRTRSKGTLRYMSPEQISSQDYGKEVDLYALGLILAELLHVCDTAFETSKFFTDLRDGIISDIFDKKEKTLLQKLLSKKPEDRPNTSEILRTLTVWKKSPEKNERHTC
modifications: K371pAzF labeled with Alexa Fluor 488-DIBO
Kd (PKR): 1260 µM

B2: PKR (protein)
chain: AGDLSAGFFMEELNTYRQKQGVVLKYQELPNSGPPHDRRFTFQVIIDGREFPEGEGRSKKEAKNAAAKLAVEILNKEKKAVSPLLLTTTNSSEGLSMGNYIGLINRIAQKKRLTVNYEQCASGVHGPEGFHYKCKMGQKEYSIGTGSTKQEAKQLAAKLAYLQILSEETSVKSDYLSSGSFATTCESQSNSLVTSTLASESSSEGDFSADTSEINSNSDSLNSSSLLMNGLRNNQRKAKRSLAPRFDLPDMKETKYTVDKRFGMDFKEIELIGSGGFGQVFKAKHRIDGKTYVIKRVKYNNEKAEREVKALAKLDHVNIVHYNGCWDGFDYDPETSDDSLESSDYDPENSKNSSRSKTKCLFIQMEFCDKGTLEQWIEKRRGEKLDKVLALELFEQITKGVDYIHSKKLIHRDLKPSNIFLVDTKQVKIGDFGLVTSLKNDGKRTRSKGTLRYMSPEQISSQDYGKEVDLYALGLILAELLHVCDTAFETSKFFTDLRDGIISDIFDKKEKTLLQKLLSKKPEDRPNTSEILRTLTVWKKSPEKNERHTC
modifications: K261pAzF labeled with Alexa Fluor 488-DIBO
Kd (PKR): 94 µM
